From patent US20030175703, “RNA aptamers and methods for identifying the same” (published 2003)
Where two headings read alike, the source gives them in different places.

Legend:
[1] = target: coagulation factor VIIa (FVIIa) (UniProt P08709;P08709 P08709:61-212,P08709:213-466); assay: competition; physiologic conditions
[2] = target: T1, angiopoietin-2 (Ang2) (UniProt O15123 O15123:19-496); assay: FIG. 27 gives <10 nM; about 1 nM in competition (FIG. 29)
[3] = target: T1, angiopoietin-2 (Ang2)
[4] = target: thrombin (F2) (human, UniProt P00734;P00734 P00734:328-363,P00734:364-622); assay: filter; ±0.7
[5] = target: T2, coagulation factor IX (FIX) (UniProt P00740 P00740:47-461); assay: ±0.7
[6] = target: T3, coagulation factor IXa (FIXa) (UniProt P00740;P00740 P00740:47-191,P00740:227-461); assay: filter; ±0.2; 500-700 pM in Table 1
[7] = target: T2, coagulation factor IX (FIX); assay: ±0.8; p287 gives about 6 to 10 nM; conditions: stem-loop
[8] = target: T3, coagulation factor IXa (FIXa); assay: ±0.05; p287 gives about 1 to 3 nM; conditions: stem-loop
[9] = target: T3, coagulation factor IXa (FIXa); assay: competition; cholesterol has modest effect on affinity

B1: 10.15 (ssRNA)
RNA: GGGAGAGAGGAAGAGGGAUGGGAAGCUCCAUCCAAGCGACGACACGCUCGUCCCGAAAAGAAUCAUAACCCAGAGGUCGAU
modifications: 2'-F pyrimidines
Kd [1]: ~6.33 nM

B2: ANG11-1 (ssRNA)
RNA: GGGAGGACGAUGCGGACUAGCCUCAUCAGCUCAUGUGCCCCUCCGCCUGGAUCACCAGACGACUCGCUGAGGAUCCGAGA
modifications: 2'-F
Kd [2]: ~5 nM

B3: Ang2 aptamer 9-5 (ssRNA)
RNA: GGGAGGACGAUGCGGCGAUCUUUUCGUCAACCGCACGUUGAACUCGGCUCGGCACCAGACGACUCGCUGAGGAUCCGAGA
modifications: 2'-F
Kd [3]: ~5 nM

B4: TOG 25 (TOGGLE-25) (ssRNA)
RNA: GGGAGAGAGGAAGAGGGAUGGGGAACAAAGCUGAAGUACUUACCCAAGAUCAUCCCGAACGACAUAACCCAGAGGUCGAUAGUACUGGAUCCCCCC
Kd [4]: 2.8 nM

B5: RNA 9.3 (ssRNA)
RNA: GGGAGAGAGGAAGAGGGAUGGGGACUAUACCGCGUAAUGCUGCCUCCCCAUUCCGGAACGCUCAUAACCCAGAGGUCGAUAGUACUGGAUCCCCCC
modifications: 2'-F pyrimidines
Kd [5]: 3.96 nM | Kd [6]: 0.65 nM

AUGGGGACUAUACCGCGUAAUGCUGCCUCCCCAU (ssRNA) [9.3t]
Kd [7]: 4.7 nM | Kd [8]: 0.58 nM

AUGGGGACUAUACCGCGUAAUGCUGCCUCCCCAU (ssRNA, 5' cholesterol) [9.3t-C]
binding result [9]: binds
